From FireProtDB (doi:10.1021/bi0512400)
Values joined by “and” are separate entries in the source; they are usually repeats but may differ in a detail not shown here. Equal values may be shown once.

B1: Alpha-lactalbumin, P00712 (parent)
chain: MMSFVSLLLVGILFHATQAEQLTKCEVFQKLKDLKDYGGVSLPEWVCTAFHTSGYDTQAIVQNNDSTEYGLFQINNKIWCKDDQNPHSRNICNISCDKFLDDDLTDDIVCAKKILDKVGINYWLAHKALCSEKLDQWLCEKL

Variants of: B1
Details: Capra hircus, pH 7.5, 25 °C, GdnHCl, CD, Tris 20 mM, Ca2+ 10 mM, structure 1HFY, whole UniProt chain shown

Variant	ddG of mutation (higher = less stable) [kJ/mol]	denaturant m value [kcal/mol/M]	unfolding free energy [kJ/mol]	denaturant m value (transition: 3)	unfolding free energy (transition: 3)
MMSFVSLLLVGILFHATQAEQLTKCEVFQKLKDLKDYGGVSLPEFVCTAFHTSGYDTQAIVQNNDSTEYGLFQINNKIWCKDDQNPHSRNICNISCDKFLDDDLTDDIVCAKKILDKVGINYWLAHKALCSEKLDQWLCEKL [W45F]	10	2.81	32.8	1.65 kcal/mol/M and 1.16 kcal/mol/M	17.5 kJ/mol and 15.3 kJ/mol
MMSFVSLLLVGILFHATQAEQLTKCEVFQKLKDLKDYGGVSLPEWVCTAFHTSGYDTQAIVQNNDSTEYGLFQINNKIFCKDDQNPHSRNICNISCDKFLDDDLTDDIVCAKKILDKVGINYWLAHKALCSEKLDQWLCEKL [W79F]	5.31	2.65	37.5	1.51 kcal/mol/M and 1.14 kcal/mol/M	20.8 kJ/mol and 16.7 kJ/mol
MMSFVSLLLVGILFHATQAEQLTKCEVFQKLKDLKDYGGVSLPEWVCTAFHTSGYDTQAIVQNNDSTEYGLFQINNKIWCKDDQNPHSRNICNISCDKFLDDDLTDDIVCAKKILDKVGINYFLAHKALCSEKLDQWLCEKL [W123F]	9.5	2.8	33.3	–	–
MMSFVSLLLVGILFHATQAEQLTKCEVFQKLKDLKDYGGVSLPEWVCTAFHTSGYDTQAIVQNNDSTEYGLFQINNKIWCKDDQNPHSRNICNISCDKFLDDDLTDDIVCAKKILDKVGINYWLAHKALCSEKLDQFLCEKL [W137F]	-0.669	3.06	43.5	–	–
